From article PMC9467613 (mAbs, 2022)

Assays:
Test in all cases: SPR
B01 = target: B01
A06 = target: A06
B05 = target: B05
G05 = target: G05
[1] = target: B7-H4 purified monomeric recombinant human protein (Homo sapiens, UniProt Q7Z7D3)

| Binder | Kd (B01) | koff (B01) | Kd (A06) | koff (A06) | Kd (B05) | koff (B05) | Kd (G05) | koff (G05) | Kd [1] | koff [1] | kon [1] |
| --- | --- | --- | --- | --- | --- | --- | --- | --- | --- | --- | --- |
| B7-H4 purified monomeric recombinant human protein (natural protein) LIIGFGISGRHSITVTTVASAGNIGEDGILSCTFEPDIKLSDIVIQWLKEGVLGLVHEFKEGKDELSEQDEMFRGRTAVFADQVIVGNASLRLKNVQLTDAGTYKCYIITSKGKGNANLEYKTGAFSMPEVNVDYNASSETLRCEAPRWFPQPTVVWASQVDQGANFSEVSNTSFELNSENVTMKVVSVLYNVTINNTYSCMIENDIAKATGDIKVTESEIKRRSHLQLLNSKAS | < 0.032 nM | < 1e-05 s⁻¹ | < 0.034 nM | < 1e-05 s⁻¹ | < 0.068 nM | < 1e-05 s⁻¹ | < 0.063 nM | < 1e-05 s⁻¹ |  |  |  |
| parental antibody against B7-H4, scFv-Fc (scFv, V domains shown) VH: EVQLVESGGGVVQPGRSLRLSCAASGFTFSSYSMNWVRQAPGKGLEWVSAISGSGGSTYYADSVKGRFTISRDNSKNTLYLQMNSLRAEDTAVYYCARKRWYGMDVWGQGTTVTVSS VL: SYELTQPPSVSVAPGKTARITCGGNNIGSKSVHWYQQKPGQAPVLVVYDDSDRPSGIPERFSGSNSGNTATLTISRVEAGDEADYYCQVWDSRTYVFGTGTKLTVL |  |  |  |  |  |  |  |  | 7.43 nM | 0.0033 s⁻¹ | 450000 M⁻¹ s⁻¹ |
